Source: the DeepSol protein solubility set

Assay: soluble on expression in E. coli; label from the status in PepcDB or PDB records

For “MESYIQNLFAERIGGKSFGKEDVIYKFEKIKRAKQAAKLKYPDMELIDMGVGEPDEMADESVVEVLCEEAKKHVNRGYSDNGVQALKDEIPIYLEKIFGVKDLDPVNEVVHSIGSKPALAYITSVFINPGDVTLMTVPGYPVTATHTKWYGGSVETLPLLEKNNFLPELDAISKEVRENAKILYLNYPNNPTGAQATKKFYKEAVDFAFENDLIVIQDAAYAALTYGDKPLSFLSVKDAKEVGVEIHSFSKAYNMTGWRLAFVAGNELIVRGFAAVKDNYDSGQFIPIQKAGIHCLRHPEITEKTRAKYERRLSKMVKILKEAGFNAKMPGGTFYLYVKAPIGTKDGAKFANAEEFSQFMIKEKLISTVPWDDAGNFVRMAACFEAFKDGEISIEEEDRILNEVKRRLTEVEFVFE”, which “soluble on expression in E. coli” value is on record?
Its value is “not soluble”.

Which “soluble on expression in E. coli” value does the source give for “MTKTNLITGFLGSGKTTSILHLLAHKDPAEKWAVLVNEFGEVGIDGALLADSGALLKEIPGGCMCCVNGLPMQVGLNTLLRQGKPDRLLIEPTGLGHPKQILDLLTAPVYEPWIDLRATLCILDPRLLLDQQSVANENFRDQLASADIIIANKTDRATAQSDAALQQWWRQYGGDRQLIHAEHGQIDGKLLDLPRQNLAELPASAAHSHTHASKKGLAALNLPAQQRWRRSLNSGQGHQACGWIFDADTVFDTIGLLEWARLAPVGRVKGVMRIQEGLVRINRQGDDLHIETQSVAPPDSRVELISNTETDWNTLQTALLKLRLATHA” here?
Its value is “not soluble”.

For “MTSKVGPVALKTFREKLGPELLEVFDKSYKSFTDVQVLSGTHLLNLSDVVVESPTGSGKTLAFVLPMMRMIQNAKLQPADIGALILSPSRELCSQIVSVIQPFAEKLNLTVETVTGGQKVDKNIKMFKNKNVNILVATPGRLFQIIQHEKTLIARKMRTLQLLVIDEADRFNEIQFEDHMREILSCIPKQRRTGLFSATQVKEEDDLMVFGLRNAKQVKVAQERNSAAPSTLKNYYVECRADEKTSVCLEFIRQRTDKKILIFFPSCNSVRYFYKIFERCLGKRPLFAVHGKCSNPHRASQIKAFSDSTNGVMISTDVMARGIDISDIDWVIQFDLPKHSSWFVHRAGRTARCGREGNALILIASEQLAYVNFLDNHEKVKLDEIKVPTNNSRKSEELRQKMIKIQVSDRAILEAGTRAFVSHVESYAKHDCHLICSLDDLNVVGLANSYALLRLPKMRELSQRKDLDMFDRSAIETSEIKYADVKLEANRETVMKEKHEKKVETLAAKDKKRREKEARKLKKMGGRFRNGGGTGRKAEEKKALKRKAEEEDDAQNDIRLLKRIKRGKLSKKEIKDVL”, which “soluble on expression in E. coli” value is on record?
The value was “not soluble”.

Which “soluble on expression in E. coli” value does the source give for “MEAGFKRKVDYLDRPERSEVLSPEDFLQAMPIGKTASILDLGAGTGFLTIPAAKLVDNTVFALDLDAKMLELIESKAKEAGLANVETLEASMDDIPLEANSVDVVLASLVLHEADSLADVLREVSRVVKTGGYFASLEFDTKGTDLKGPPMEIQISAEKLKEELAGFGFEVVKNWQLDEGMYVSIAVKKLEHHHHHH” here?
The value was “not soluble”.

Which “soluble on expression in E. coli” value does the source give for “QRNGFCRLPADEGICKALIPRFYFNTETGKCTMFSYGGCGGNENNFETIEECQKACGAPERVNDFESADFKTGCEPAADSGSCAGQLERWFYNVQSGECETFVYGGCGGNDNNYESEEECELVCKNM” here?
The value was “soluble”.

With “MKKFFLFLVLPIFLFASPLKAVFDCAVGDLDWISLRLSLIKKTAEQLMEEGKSYRFVITIHSHCIKVVDADLKKFPESERRKIELIQSQLKTLKEMYSVDVKACQIAMNRGKIKKVPPFVETVPNSWITLIELQNKGFAFVPF” as the sequence, how does the “soluble on expression in E. coli” value read?
Its value is “not soluble”.

Which “soluble on expression in E. coli” value does the source give for “MDISVVVPTLNGREELTGCLDALTEQVPDAEVIVVNGPSADGTTGMVRDRDDVSLLVEIADRSVTVARNAGIDRATGDVIALVHQSLSVESGWADAVKDGLSGAAQAITGPTHQQLWAGMTTETEETRTIAGRDVTYFNPGNVAFDAEVVEALDGFDEYLNVGSARDFAHRMAAGEYGVDWSTEMCVSREFEADGGIAETDWNWKYRSLAYRLVKNYNVRPTVVRRILSHAVGDAKDALFDVVRGETTPSQWLGTGQDVFGGVGSGIVDGVRARVTDRTARRNPNGRSARTNRAVTVYDWRLEHHHHHH” here?
Its value is “not soluble”.

Which “soluble on expression in E. coli” value does the source give for “MLAIFQKAFAHPPEELNSPASHFSGKTPKLPGETLSDFLSHHQNNAFSMNFGDSAVLAYARQETSLRQRLFCGLDGIYCMFLGRLNNLCTLNRQYGLSGKNSNEAMFVIEAYRTLRDRGPYPADQVLRGLEGSFAFVVYDTQTSSVFSALSSDGGESLYWGISGDGSVVMSDDIQIIKQGCAKSFAPFPNGCMFHSETGLKSFDHPTNMMKAMPRIDSEGVLCGASFKVDACSKINSIPRRGSEANWALANSR” here?
The value was “soluble”.

For “MKKQLLIVDGYNMIGAWPELVQLKKQERLEDARELLLSRLSNYAKYEGLEIIVVFDAQLVPGIQQTYKKYLLTVVFTKEDETADSYIERLAGEKNDRLTQVTVATSDLAEQWVVFSQGALRTSANELYKAVQKTEKTIAIHATDIHFQQFRRNSPWNVEQLSKLSEKLEELSQKKD”, which “soluble on expression in E. coli” value is on record?
The value was “not soluble”.

For “PEIAEVVIGVGENAVKIGGEEVLHRHELTFFNPTGFFYDVWDTMDDKALEERCDRVVSYKKFYVGNFLTLDGFAVRCTSGDPKRYREVVKKVASYGKPLILVALDSECMKAALEEVADQRPLMYAATEGNWKEFLKLALEYKVPVTLRAKDLDLLKSMAVTFKQAGVKDIVLDPVTEPLGEGLKGTFERVIQLRRTAIAGQDKDVAYPIMITPIAAWLIEGDDVTKSYWEAVIASIFIVKYGDVMIFRSIDQHVVMPTITLRFNIYTDPRTPVQVEPGLRAINDPGPDDPVFITTNFALTYYTVESDLTSGGIKGWLLVLNTEGLGVEVSVAGGQFTASKVKELIEETKIEEKVNHRYLVIPGLAARLQGAIEDETGWKVLVGPMDSGRIKGWLEKNWP”, which “soluble on expression in E. coli” value is on record?
Its value is “not soluble”.

With “SLPHPAPGPGDPEDPRLAEVVDAVRSSRRYQSVAPETVRRLATSALVASRGDLAEAVKRTKRGLHEIFGAYLPSPPKYDALLRQLRGAVDAATTRPCGHPAPRHVHARLHPRALPILDEFYREVFARCADPASVRDLACGMNPLAAPWMPGSDAFTYHASDIDTRLMEFLDAALETLGVAHDVRVRDLMTGVGEVETDVTLLLKTVPCIEAQGRGQGWDLIDAIRSPLVVVSFPTKSLGQRSKGMFNTYSANFDAWLENRPHDVEQLEFRNELVYFVRKNA” as the sequence, how does the “soluble on expression in E. coli” value read?
Its value is “soluble”.

Which “soluble on expression in E. coli” value does the source give for “MQPKLIILRGNSGSGKTTIANALHQCLKEQSLLISQDVVRREMLRVKDETGNLSIALLKQLVAFGYQECQYVIVEGIFQKAIYHSFFQEIIHLFEGNVQVYYFDISFEETLKRHSQRNKNQEFGVVEMKRWWLPEDYLGFPGEQRLSEQLSEKQIIRQILADIQ” here?
Its value is “not soluble”.

With “GDFIVVQSTTSTQNSGLLDHILPAFEAETGIEVRVVAVGTGQAIRNAANGDGDVLLVHAKAAEEKFVAEGWGVERFDVMYNDFVLVGPASDPAGVRGGSDIVAALSAIAGAEAPFASRGDDSGTHKAELRHWASAGIDVSAASGGWYRETGSGMGATLNLAAGMGAYALSDRATWIAFGNKGDLVVAVEGDARLFNQYGVILVNPAKHPGVKAEAGQRFIDWLTGDEGQAAIAGYTL” as the sequence, how does the “soluble on expression in E. coli” value read?
Its value is “not soluble”.

Which “soluble on expression in E. coli” value does the source give for “MAVTNVAELNALVERVKKAQREYASFTQEQVDKIFRAAALAAADARIPLAKMAVAESGMGIVEDKVIKNHFASEYIYNAYKDEKTCGVLSEDDTFGTITIAEPIGIICGIVPTTNPTSTAIFKSLISLKTRNAIIFSPHPRAKEATNKAADIVLQAAIAAGAPKDLIGWIDQPSVELSNALMHHPDINLILATGGPGMVKAAYSSGKPAIGVGAGNTPVVIDETADIKRAVASVLMSKTFDNGVICASEQSVVVVDSVYDAVRERFASHGGYMLQGQELKAVQNVILKNGALNAAIVGQPAYKIAELAGFSVPETTKILIGEVTVVDESEPFAHEKLSPTLAMYRAKDFEEAVEKAEKLVAMGGIGHTSCLYTDQDNQPERVAYFGQMMKTARILINTPASQGGIGDLYNFKLAPSLTLGCGSWGGNSISENVGPKHLINKKTVAKRAENMLWHKLPKSIYFRRGSLPIALDEVITDGHKRALIVTDRFLFNNGYADQITSVLKAAGVETEVFFEVEADPTLSVVRKGAELANSFKPDVIIALGGGSPMDAAKIMWVMYEHPETHFEELALRFMDIRKRIYKFPKMGVKAKMIAVTTTSGTGSEVTPFAVVTDDATGQKYPLADYALTPDMAIVDANLVMDMPKSLCAFGGLDAVTHALEAYVSVLASEFSDGQALQALKLLKENLPASYHEGSKNPVARERVHSAATIAGIAFANAFLGVCHSMAHKLGSQFHIPHGLANALLICNVIRYNANDNPTKQTAFSQYDRPQARRRYAEIADHLGLSAPGDRTAAKIEKLLAWLESIKAELGIPKSIREAGVQEADFLAHVDKLSEDAFDDQCTGANPRYPLISELKQILLDTYYGRDFTEGEVAAKKDVVAAPKAEKKAKKSA” here?
Its value is “soluble”.

With “MILDRERTTGSLFERMEASSARNRQGGSIHSLRQSIRQNLRNILNTRSGSCRGAPELGIDEPEGAENFRESMSRAIEQCIERYEPRISHAEVQAVVSSASSPLDMTFHITAWVTFNETHEVLEFDMAPNGSQHYRVD” as the sequence, how does the “soluble on expression in E. coli” value read?
The value was “soluble”.

Which “soluble on expression in E. coli” value does the source give for “MLPRGALVLNPFSEKAVSPEDRDMVLRRGIAALDCSWKKVKKSSVIFQTARNHRSLPFLVAANPTNYGKPCILSTAEAVAATLYIVGLKDIASDIMSYFKWGPHFLDLNRELLEAYSRAENSLEVVEIQKKFIGGLEHHHHHH” here?
Its value is “not soluble”.

Which “soluble on expression in E. coli” value does the source give for “MAHHHHHHMSLTKGSKAAQDVISFLHTVGRLKVTARQGWVENQICSPESVSDHMYRMSLMCMMCPDTSLNRDRMVKMALCHDTGESIIGDISPAMKVPKEVKKQQESQAVQSLCKLVSSSPNTTFSKELGDLFEEYEAQETAESHFVKDMDLLEMVVQAHSYESANPGKDLGSFFRSGANIHHPWARAIYETLLETRPYLAYKEEQAKEASSI” here?
Its value is “soluble”.

Which “soluble on expression in E. coli” value does the source give for “MGFGIGDLFWIFLLLTSLQPLWQKRQIEYRRLRALQEFQQERKSRVILLIHRQESISFLGIPISRYITIEDSEQILRAIRLTPPDVPIDLILHTPGGLVLATEQIARALIRHQAKVTVFVPHYAMSGGTMLALASDEIIMDANAVLGPVDPQLGNYPAASILKVIEDKPISEIDDQTLIMADLSRKAIGQVQRFVRTLLKDSIPKQKVLPENIESIIEALTTGRVTHDYPITIEEATEMGLPVTVGLPHSIYDLMDLYPQAQGGRPSVQYIPMPYNDPRPIL” here?
Its value is “not soluble”.

Which “soluble on expression in E. coli” value does the source give for “PDVSVQEMVSAYTTFVNKGIRVNPLPITRIEDQYGNVVAQFSPNMVEVLPPDAAYKMLYMLKSVVDGGTGSRLRYRYGFKLDMGGKTGTTQNNSD” here?
Its value is “not soluble”.

With “MPSKLALIQELPDRIQTAVEAAMGMSYQDAPNNVRRDLDNLHACLNKAKLTVSRMVTSLLEKPSVVAYLEGKA” as the sequence, how does the “soluble on expression in E. coli” value read?
Its value is “soluble”.

Which “soluble on expression in E. coli” value does the source give for “MGRNDSEFPSDEELKKLAGKIKGAAIRANTKILKSYDPDTYGNYLDQLDGIRSQAEWLGTAFDDFLKPSPWDFDDMLKALDEIASDLGQAVGETEIKNGIVQGRIDTTKQFLGEGGWKGALADSFKMDYLEPIGSHIAANQGAVTLVTHDGLQAMRDIYGKARENLKDLGEKAVTAFEQADGISASDLKTLLTVLSAAFGLGTAVLSAFAPAAAAGAGIASALVSGGIAVGSDKVGEDEESELAADYPDKVEENFKNALEKLKEQITTMEDELIKVLQKGTSDIASIVWGEKLDRLNGFSALFGMGNQSLLAPKVPDLSMVAFGDDPGKLKDGLVQVSG” here?
The value was “not soluble”.

For “IENYHVEEAENDLTQLANKVAVILENHEDQALARSITWELADNLTSIAIIQDEKNHWYSPNDKNRLSSITVEQIQHDKDLNKALKDHKKVSKRTGLSDTDTDNERLIVGVPYEKDGKKGMVFLSQSLLAVKDTTKHTTR”, which “soluble on expression in E. coli” value is on record?
Its value is “not soluble”.

For “PLGSEEEEEDAGLVAEAEAVAAGWMLDFLCLSLCRAFRDGRSEDFRRTRNSAEAIIHGLSSLTACQLRTIYICQFLTRIAAGKTLDAQFENDERITPLESALMIWGSIEKEHDKLHEEIQNLIKIQAIAVCMENGNFKEAEEVFERIFGDPNSHMPFKSKLLMIISQKDTFHSFFQHFSYNHMMEKIKSYVNYVLSEKSSTFLMKAAAKVVESKR”, which “soluble on expression in E. coli” value is on record?
Its value is “soluble”.
